The nature of this series: protein stability index of a GFP-peptide fusion (GPS, HEK-293T) (PSI 1-6); higher = more stable. The conditions noted are these: c terminus: a fixed tail appended.

± gives the standard deviation.
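Further: 24-mer peptide tiles fused after GFP, lentivirally expressed, FACS-sorted into six equal bins by GFP/DsRed ratio, decoded by Illumina sequencing, PSI is the read-weighted mean bin number.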

For the sequence SATNVTCYYQPAPYVSDGNFSNYY [TENT5C], the protein stability index (treatment: DMSO) came out at 2.05 ± 0.29 and the protein stability index (treatment: MLN4924 1 uM, 8 h) was determined as 2.14 ± 0.28.

On to SCCMTEEIFGPVTCVVPFDSEEEV [ALDH8A1], for which the protein stability index reads like this: (treatment: DMSO) 4.71 ± 0.34; (treatment: MLN4924 1 uM, 8 h) 4.83 ± 0.27.

Regarding SCRELLRIADKFTQHNFQEVMESE [KLHL20], the protein stability index is, setting by setting: (treatment: DMSO) 2.17 ± 0.14; (treatment: MLN4924 1 uM, 8 h) 2.19 ± 0.06.

Regarding SDAEAVSTRWEVIAEDGTKEIESQ [TAF7L], the protein stability index (treatment: DMSO) was determined as 5.42 ± 0.12 and the protein stability index (treatment: MLN4924 1 uM, 8 h) was found to be 5.48 ± 0.31.

In the case of SEAAIGGAMLGQTTSEEAVGGATP [HDAC6], the protein stability index (treatment: DMSO) was found to be 5.31 ± 0.26 and the protein stability index (treatment: MLN4924 1 uM, 8 h) worked out at 5.4 ± 0.17.

Consider SEALASTRILKHSPESSRGQCGEN [GLIPR2], for which the protein stability index runs as follows: (treatment: DMSO) 5.29 ± 0.21; (treatment: MLN4924 1 uM, 8 h) 4.93 ± 0.25.

Consider SEEAVQKLATCYFFTVEFGLCKQD [TPH1], for which the protein stability index reads like this: (treatment: DMSO) 2.3 ± 0.61; (treatment: MLN4924 1 uM, 8 h) 2.27 ± 0.13.

As for SEIPRGVRVALDYEAGQVTLHNAQ [TRIM15], the protein stability index runs as follows: (treatment: DMSO) 4.45 ± 0.35; (treatment: MLN4924 1 uM, 8 h) 4.57 ± 0.11.

Take SEKAMLRSRIEEQSQLICILKRRS [CCDC89]: the protein stability index runs as follows: (treatment: DMSO) 3.07 ± 0.2; (treatment: MLN4924 1 uM, 8 h) 3.19 ± 0.15.

As for SELRTKVQEQQKQLQDQDQKLLEQ [FBXO28], the protein stability index by setting is: (treatment: DMSO) 5.5 ± 0.19; (treatment: MLN4924 1 uM, 8 h) 5.481 ± 0.034.

In the case of SESRKPTVSIMEPGETRRNSYPRA [TRIM29], the protein stability index is, setting by setting: (treatment: DMSO) 4.79 ± 0.12; (treatment: MLN4924 1 uM, 8 h) 4.43 ± 0.19.

For SESSLEMDDERYFNEMSAQGLRPR [CCDC6], the protein stability index reads like this: (treatment: DMSO) 4.78 ± 0.2; (treatment: MLN4924 1 uM, 8 h) 4.85 ± 0.22.

For SFAQLKNLKWLDLKDNPLDPVLAK [LRRC59], the protein stability index by setting is: (treatment: DMSO) 2.98 ± 0.096; (treatment: MLN4924 1 uM, 8 h) 2.96 ± 0.33.

As for SFMPLVIKVTSATSVNLGILTADL [SLC35F2], the protein stability index was 2.7 ± 1 (treatment: DMSO) and 2.87 ± 0.49 (treatment: MLN4924 1 uM, 8 h).

Regarding SFRQGMHLTRHQRTHTGEKPYKCT [ZNF263], the protein stability index amounted to 3.57 ± 0.65 (treatment: DMSO) and 3.7 ± 0.49 (treatment: MLN4924 1 uM, 8 h).

With SGAGGTGGPAGQAGRGGAAGTAGV [MYOZ1], the protein stability index is 5.07 ± 0.2 (treatment: DMSO) and 4.93 ± 0.17 (treatment: MLN4924 1 uM, 8 h).

For the sequence SGNDPFAPSEGSAEAAPELDLFAM [SNAP91], the protein stability index was 4.83 ± 0.2 (treatment: DMSO) and 4.89 ± 0.23 (treatment: MLN4924 1 uM, 8 h).

For SGRSGHNTRGTGSSSSGVLMVGPN [CSNK1G3], the protein stability index came out at 4.13 ± 0.24 (treatment: DMSO) and 4.18 ± 0.16 (treatment: MLN4924 1 uM, 8 h).

In the case of SGTCSPLRHSFQKQQREKTRWLNS [ADD1], the protein stability index reads like this: (treatment: DMSO) 2.96 ± 0.26; (treatment: MLN4924 1 uM, 8 h) 3.11 ± 0.059.

Turning to SGYALAEDGKRCVAVDYCASENHG [MATN2], the protein stability index reads like this: (treatment: DMSO) 4.28 ± 0.64; (treatment: MLN4924 1 uM, 8 h) 4.36 ± 0.21.

Take SHSNITGIVEVILGETKAYVFFEK [TRIB1]: the protein stability index is, setting by setting: (treatment: DMSO) 2.41 ± 1; (treatment: MLN4924 1 uM, 8 h) 1.9 ± 0.58.

For SIEEILEEQRVEQQTKLEAEKLKV [LSM1], the protein stability index worked out at 5.11 ± 0.34 (treatment: DMSO) and 5.2 ± 0.22 (treatment: MLN4924 1 uM, 8 h).

As for SIHCLGPIKLELLEPKANLQAALQ [VPS39], the protein stability index (treatment: DMSO) turned out to be 2.61 ± 0.34 and the protein stability index (treatment: MLN4924 1 uM, 8 h) stood at 2.45 ± 0.36.

Regarding SILTDNPTWIIDPIDGTTNFVHRF [IMPA1], the protein stability index by setting is: (treatment: DMSO) 2.19 ± 0.26; (treatment: MLN4924 1 uM, 8 h) 2.12 ± 0.27.

Regarding SINALLQAEVLSRQITSPVSGING [HNF4A], the protein stability index stood at 2.7 ± 0.13 (treatment: DMSO) and 2.67 ± 0.2 (treatment: MLN4924 1 uM, 8 h).

In the case of SIVTAAKKDILLVNDHLLNFVRER [PDS5B], the protein stability index runs as follows: (treatment: DMSO) 2.25 ± 0.16; (treatment: MLN4924 1 uM, 8 h) 2.3 ± 0.27.

On to SKAAAGKMNLYESFAQATQLGDLH [INTS3], for which the protein stability index runs as follows: (treatment: DMSO) 3.63 ± 0.25; (treatment: MLN4924 1 uM, 8 h) 3.58 ± 0.23.

In the case of SKETRLTLMEEVLLLGLKDREGYT [GOLPH3], the protein stability index was 2.8 ± 0.22 (treatment: DMSO) and 2.75 ± 0.28 (treatment: MLN4924 1 uM, 8 h).

Regarding SKLSRKYVKAKKSIDKDEEFAGSS [FAN1], the protein stability index was 4.84 ± 0.14 (treatment: DMSO) and 4.64 ± 0.31 (treatment: MLN4924 1 uM, 8 h).

SKRNIKKGAVPRSIPNLAEVKKKG [HDAC6] gave a protein stability index (treatment: DMSO) of 4.26 ± 0.47 and a protein stability index (treatment: MLN4924 1 uM, 8 h) of 4.46 ± 0.44.

SKTEELNREVATNSELVQSGKSEI [KRT17] yielded a protein stability index (treatment: DMSO) of 5.34 ± 0.22 and a protein stability index (treatment: MLN4924 1 uM, 8 h) of 5.06 ± 0.1.

As for SKVLSLQDLCCRAVVSCTPVHLVD [RAB40B], the protein stability index stood at 3.01 ± 0.17 (treatment: DMSO) and 2.85 ± 0.32 (treatment: MLN4924 1 uM, 8 h).

As for SLDFTKKILHTAWHPAENIIAIAA [PPP2R2C], the protein stability index stood at 2.58 ± 0.59 (treatment: DMSO) and 2.29 ± 0.31 (treatment: MLN4924 1 uM, 8 h).

SLFSQALKDEEAKVLQLTVRCEAL [CCDC89]: the protein stability index by setting is: (treatment: DMSO) 2.8 ± 0.26; (treatment: MLN4924 1 uM, 8 h) 2.76 ± 0.17.

Regarding SLLNKKADGVKPQTNSTKNSAAAT [CAMK2B], the protein stability index was found to be 4.43 ± 0.055 (treatment: DMSO) and 4.34 ± 0.23 (treatment: MLN4924 1 uM, 8 h).

SLLRPLNSLAALDLSGIQTSDAAF [ZER1]: the protein stability index by setting is: (treatment: DMSO) 2.87 ± 0.15; (treatment: MLN4924 1 uM, 8 h) 2.9 ± 0.24.

These data come from the supplement of paper PMC10567573.
